Experimental data: PMC7522082, “A simple procedure for bacterial expression and purification of the fragile X protein family”

Assays:
His6-MBP-FXR1P [1] = target: T1, His6-MBP-FXR1P (Homo sapiens, UniProt P51114-2 1-539); experiment: EMSA; 250 nM protein; FA: 20 mM Tris pH 7.5, 75 mM KCl, 5 mM MgCl2, 1 uM BSA, 1 mM DTT, 100 ng/uL tRNA, ~5 nM RNA, RT 1 h; EMSA: 50 mM Tris pH 7.5, 145 mM KCl, 5 mM MgCl2, 1 uM BSA; conditions: protein: recombinant, tags: N-terminal His6-MBP
His6-MBP = His6-MBP (UniProt P0AEX9 27-392); experiment: fluorescence anisotropy; FA: 20 mM Tris pH 7.5, 75 mM KCl, 5 mM MgCl2, 1 uM BSA, 1 mM DTT, 100 ng/uL tRNA, ~5 nM RNA, RT 1 h; EMSA: 50 mM Tris pH 7.5, 145 mM KCl, 5 mM MgCl2, 1 uM BSA
His6-MBP-FXR1P [2] = target: T1, His6-MBP-FXR1P; experiment: fluorescence anisotropy; 75 mM K+, 5 mM Mg2+; FA: 20 mM Tris pH 7.5, 75 mM KCl, 5 mM MgCl2, 1 uM BSA, 1 mM DTT, 100 ng/uL tRNA, ~5 nM RNA, RT 1 h; EMSA: 50 mM Tris pH 7.5, 145 mM KCl, 5 mM MgCl2, 1 uM BSA; conditions: protein: recombinant; tags: N-terminal His6-MBP; label: 3' fluorescein; G-quadruplex forming

T1 sequence (P51114 other isoform, or with tags, fused parts or gaps): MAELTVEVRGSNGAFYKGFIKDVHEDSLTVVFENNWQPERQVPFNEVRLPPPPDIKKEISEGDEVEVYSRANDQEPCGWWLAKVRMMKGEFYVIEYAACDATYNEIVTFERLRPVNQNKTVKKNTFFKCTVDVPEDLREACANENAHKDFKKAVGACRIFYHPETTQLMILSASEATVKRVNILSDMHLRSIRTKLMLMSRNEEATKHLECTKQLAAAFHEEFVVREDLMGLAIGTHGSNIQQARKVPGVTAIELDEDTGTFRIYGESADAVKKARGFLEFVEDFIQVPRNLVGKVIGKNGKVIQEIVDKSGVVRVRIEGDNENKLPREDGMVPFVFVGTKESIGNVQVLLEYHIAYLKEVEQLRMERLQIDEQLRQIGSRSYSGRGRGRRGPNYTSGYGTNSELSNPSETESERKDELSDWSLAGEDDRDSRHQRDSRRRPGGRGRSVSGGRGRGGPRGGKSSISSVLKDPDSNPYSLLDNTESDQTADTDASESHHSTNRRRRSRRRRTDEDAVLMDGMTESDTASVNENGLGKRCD

B1: ΔKC2 (structured_RNA)
RNA: GGGCGAAUUCGGGAUUCCGACCAGAAGGGGCUAAGGAAUGGUGGGACGAGCUAGCGGCUGGUAUGUGCGUCU
His6-MBP-FXR1P [1]; label: 3' fluorescein (FTSC, periodate-oxidized 3' end), loop-loop pseudoknot (kissing complex)
  binding result: binds

## GGGGGGGGGGGGGGGGGU (structured_RNA) [poly-G17U]
His6-MBP
  binding result: no binding
His6-MBP-FXR1P [2]
  Kd: 11.7 ± 1 nM

## GCUAUCCAGAUUCUGAUU (ssRNA) [CR1]
His6-MBP-FXR1P [1]; label: 3' fluorescein, single strand, no predicted G-quadruplex
  binding result: no binding
